Substitutions are numbered along the chain they refer to.
T1: Human IL2Rγ extracellular domain expressed with a C-terminal myc-myc-hexahistidine tag (human)
T1 construct: also called hIL-2Rg-MMH; hIL-2RG-MMH
T1 chain: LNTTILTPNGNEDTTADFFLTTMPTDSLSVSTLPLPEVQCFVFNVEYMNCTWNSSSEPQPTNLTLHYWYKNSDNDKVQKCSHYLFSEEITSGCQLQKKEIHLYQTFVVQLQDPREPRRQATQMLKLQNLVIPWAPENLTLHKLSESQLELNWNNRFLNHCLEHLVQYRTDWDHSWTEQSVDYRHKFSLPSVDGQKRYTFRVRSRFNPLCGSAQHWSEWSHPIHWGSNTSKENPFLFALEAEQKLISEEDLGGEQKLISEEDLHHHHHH

T2: Macaca fascicularis IL2Rγ extracellular domain expressed with a C-terminal myc-myc-hexahistidine tag (Macaca fascicularis)
T2 construct: also called mfIL-2Rg-MMH; mfIL-2RG-MMH
T2 chain: T1 chain with T14A, A16T, T22S, H141R, T228S

B1: H4H12886P (antibody, human IgG4 S228P, kappa, V domains shown)
VH: EVQLVESGGGLVKPGGSLRLSCAASGFTFSTAWMSWVRQSPGRGLEWVGRMKSKTDGGTTFYAAPVKGRFTISRDDSKNTLYLQMNSLKTEDTAVYYCTTGLVPAFYKYYGVDVWGQGTTVTVSS
VL: DIQMTQSPSSLSASVGDRITITCQASQDITNYLNWYQQKPGKAPNLLIYDASNLVTGVPSRFSGSGSGTDFTFTILSLQPEDIATYYCQQYDSLLTFGPGTKVDIKR
notes: anti-IL2Rγ monoclonal antibody expressed with human IgG4 Fc
B2: H4H12889P (antibody, human IgG4 S228P, kappa, V domains shown)
VH: EVQLVESGGGLVQPGGSLRLSCAASGFIFSSYEMHWVRQAPGKGLEWISYISSSGTTIYYADSVKGRFTISRDNAKNSLYLHMNSLRAEDTAVYYCTRARITGTFDVFDIWGQGTMVTVSS
VL: DIQMTQSPSSLSASVGDRVTITCRASQSISSYLNWYQQKPGKAPKLLIFAASNLQSGVPSRFSGSRSGTDFTLTISSLQPEDFATYYCQQNYNIPYTFGQGTKLEIKR
notes: anti-IL2Rγ monoclonal antibody expressed with human IgG4 Fc; also called REGN7257
B3: H4H12890P (antibody, human IgG4 S228P, kappa, V domains shown)
VH: EVQLVESGGGLVQPGGSLRLSCAASGFTFNNYAMHWVRQAPGKGLEYVSSISSSGGSTYYEDSVKGRFTISRDNSKNTLYLQMGSLRAEDMAVYYCARSFYGSGTYYDTFDMWGQGTMVTVSS
VL: B2 VL with V15I, S31R, F49Y, N53S, G64A, R66G, N91S, N93S, I94T, Y96F
notes: as for B1
B4: H4H12899P (antibody, human IgG4 S228P, kappa, V domains shown)
VH: QVQLVESGGDLVKPGGSLRLSCATSGFTFSDFYMTWIRQAPGKGLEWISYISNSGSIVKYADSVKGRFTISRDNAKNSLYLQMNSLRAEDTAIYYCARFYGDRWGQGTLVTVSS
VL: DIQLTQSPSFLSASVGDRVTITCWASQGISTFLAWYQQKPGKAPKLLIYAASTLQSGVPSRFSGSGSGTDFTLTISSLQPEDFATYHCQQLNNYPWTFGQGTKVEIKR
notes: as for B1
B5: H4H12900P (antibody, human IgG4 S228P, kappa, V domains shown)
VH: QVQLVESGGGLVKPGGSLRLSCEASGFTFNDFYMTWIRQAPGKGLEWIAYISKSGDKMRYADSVKGRFSTSRDNAKNSLSLQMNSLRAEDTAVYYCARFYGDIWGQGTLVTVSS
VL: B4 VL with G28D, T31S, A34V, K45N, T53A, D70E, T85S, H87Y, Q89E
notes: as for B1
B6: H4H12908P (antibody, human IgG4 S228P, kappa, V domains shown)
VH: EVQLVESGGRLVQPGGSLRLSCEASGFTFSNYGMTWVRQAPGKGLEWVSVISGSDNRKYYAESVKGRFTISRDNSKNTLYLQMNSLRAEDTAVYYCAKLGYSRSSKDFYYGMDVWGQGTTVTVSS
VL: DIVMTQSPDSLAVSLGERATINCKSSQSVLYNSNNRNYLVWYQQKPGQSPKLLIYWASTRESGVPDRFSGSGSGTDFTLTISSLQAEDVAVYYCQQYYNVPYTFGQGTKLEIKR
notes: as for B1

Target: T1, Human IL2Rγ extracellular domain …
Assay: SPR Biacore 4000, mAb captured by anti-hFc, HBS-ET, 25C
Protocol: (§1) Equilibrium dissociation constants (KD values) for IL-2Rγ binding to purified anti-IL2Rγ monoclonal antibodies were determined using a Biacore 4000 instrument equipped with a real-time surface plasmon resonance biosensor. All binding studies were performed in 10 mM HEPES, 150 mM NaCl, 3 mM EDTA, and 0.05% v/v Surfactant Tween-20, pH 7.4 (HBS-ET) running buffer at 25° C. and 37° C. The Biacore sensor surface was first derivatized by amine coupling with a monoclonal mouse anti-human Fc antibody (GE, # BR-1008-39) to capture anti-IL2Rγ monoclonal antibodies.
(§2) The dissociation of monoclonal antibody bound IL2Rγ reagents were monitored for 8-10 minutes in HBS-ET running buffer. Kinetic association (kₐ) and dissociation (kd) rate constants were determined by fitting the real-time sensorgrams to a 1:1 binding model using Scrubber 2.0c curve fitting software. Binding dissociation equilibrium constants (KD) and dissociative half-lives (t_{1/2}) were calculated from the kinetic rate constants as: […]

| 100 nM Ag Bound [RU] | Kd [nM] | koff [s⁻¹] | kon [M⁻¹ s⁻¹] | t1/2 [min] | Binder |
| --- | --- | --- | --- | --- | --- |
| 60 | 2.02 | 0.00027 | 134000 | 43 | B1 |
| 64 | 1.41 | 0.00042 | 298000 | 28 | B2 |
| 48 | 4.91 | 0.000333 | 67900 | 35 | B3 |
| 61 | 2.51 | 0.000458 | 182000 | 25 | B4 |
| 79 | 1.29 | 0.000379 | 293000 | 30 | B5 |
| 19 | 8.61 | 0.000285 | 33100 | 41 | B6 |

Target: T2, Macaca fascicularis IL2Rγ extracellular …
Assay: as above
Protocol: as §1, §2

| 100 nM Ag Bound [RU] | Kd [nM] | koff [s⁻¹] | kon [M⁻¹ s⁻¹] | t1/2 [min] | Binder |
| --- | --- | --- | --- | --- | --- |
| 57 | 2.45 | 0.000266 | 109000 | 43 | B1 |
| 59 | 1.74 | 0.000404 | 233000 | 29 | B2 |
| 37 | 5.16 | 0.000313 | 60600 | 37 | B3 |
| 54 | 4.01 | 0.000407 | 102000 | 28 | B4 |
| 71 | 1.44 | 0.000335 | 232000 | 34 | B5 |
| 14 | 7.37 | 0.000237 | 32200 | 49 | B6 |

Target: T1, Human IL2Rγ extracellular domain …
Assay: SPR Biacore 4000, mAb captured by anti-hFc, HBS-ET, 37C
Protocol: as §1, §2

| 100 nM Ag Bound [RU] | Kd [nM] | koff [s⁻¹] | kon [M⁻¹ s⁻¹] | t1/2 [min] | Binder |
| --- | --- | --- | --- | --- | --- |
| 52 | 15.4 | 0.000956 | 61900 | 12 | B1 |
| 32 | 3.99 | 0.00185 | 465000 | 6 | B2 |
| 27 | 14 | 0.00133 | 95100 | 9 | B3 |
| 36 | 7.27 | 0.00249 | 342000 | 5 | B4 |
| 43 | 3.66 | 0.00184 | 503000 | 6 | B5 |
| 16 | 29.2 | 0.00141 | 48300 | 8 | B6 |

Target: T2, Macaca fascicularis IL2Rγ extracellular …
Assay: SPR Biacore 4000, mAb captured by anti-hFc, 37C, dissociation in PBS-T pH 7.4
Protocol: (§3) The dissociation rate constant (kd) for binding of IL-2Rγ reagents to purified anti-IL2Rγ monoclonal antibodies was determined using a real-time surface plasmon resonance based Biacore 4000 biosensor platform. […] The CM5 Biacore sensor surface derivatized by amine coupling with monoclonal mouse anti-human Fc antibody (GE, Catalog # BR-1008-39) was used to capture anti-IL2Rγ monoclonal antibodies expressed with human IgG4 Fc. All the IL2Rγ reagents were expressed with a C-terminal myc-myc-hexahistidine tag (subsequently referred to with a -MMH suffix). […] The dissociation of bound IL-2Rg-MMH was performed in PBS-T-pH7.4 or PBS-T-pH6.0 running buffers for 6 minutes.
(§4) Dissociation rate constants (kd) in two running buffers were determined by fitting the real-time binding sensorgrams to a 1:1 binding model using Scrubber 2.0c curve-fitting software. Values of dissociation rate for […] mAb binding to hIL-2RG-MMH and mfIL-2RG-MMH at 25° C. and 37° C. in PBS-T-pH7.4 and PBS-T-pH6.0 is shown in Table 2-1 through Table 2-8.

| 100 nM Ag Bound (RU) | koff [s⁻¹] | t1/2 [min] | Binder |
| --- | --- | --- | --- |
| 145 | 0.000471 | 25 | B1 |
| 147 | 0.000578 | 20 | B2 |
| 82 | 0.000624 | 19 | B3 |
| 160 | 0.000552 | 21 | B4 |
| 166 | 0.000623 | 19 | B5 |
| 55 | 0.000514 | 22 | B6 |

Target: T2, Macaca fascicularis IL2Rγ extracellular …
Assay: SPR Biacore 4000, mAb captured by anti-hFc, 37C, dissociation in PBS-T pH 6.0
Protocol: as §3, §4

| 100 nM Ag Bound (RU) | koff [s⁻¹] | t1/2 [min] | Binder |
| --- | --- | --- | --- |
| 109 | 0.00197 | 6 | B1 |
| 148 | 0.00183 | 6 | B2 |
| 71 | 0.00276 | 4 | B3 |
| 122 | 0.00211 | 5 | B4 |
| 130 | 0.00277 | 4 | B5 |
| 52 | 0.00131 | 9 | B6 |
